Measured values from patent US20170204184A1 (CB THERAPEUTICS, published 2017).
Values belong to the binder of their own block, whether it stands above or below them.

Assays:
[1] = target: T1, Human PD-L1 (human, UniProt Q9NZQ7 19-238, limits assumed); assay: SPR (Biacore 3000), antibody captured, PD-L1 as analyte, 1:1 fit
T1 construct: also called PD-L1 analyte (Biacore); hPD-L1
Experimental: (§1) The binding kinetics between PD-L1 and PD-L1 antibodies were measured by Biacore analysis, which was performed at 25° C. on a Biacore3000 instrument and recorded with a data collection rate of 1 Hz. Polyclonal rabbit anti-mouse IgG (GE, BR-1008-38) was diluted with 10 mM pH 5.0 sodium acetate and immobilized onto reference and experiment flow cells of a CM5 biosensor chip to around 15000 RU using an amine coupling kit (GE, BR10050). […] PD-L1 analyte series were prepared by diluting the stocks with running buffer to 100 nM followed by 2× serial dilution in the same buffer down to 0.78 nM. Analytes were injected in series over the reference and experiment flow cells for 3 minutes at a flow rate of 30 μL/minute. Running buffer (PBS with 0.05% P20) was allowed to flow over for 10 minutes at a flow rate of 30 μL/minute. At the end of each cycle, the biosensor surface was regenerated with 3 minutes injection of 10 mM pH1.7 Glycine-HCl buffer at a flow rate of 10 μL/minute. For each analyte sample injection (i.e. each cycle), binding responses obtained from the experimental biosensor surface were double referenced by subtracting simultaneously recorded responses from the reference surface followed by additional subtraction of responses from a single referenced running buffer sample. The association and dissociation rate constants (ka and kd) were determined simultaneously by fitting double-referenced sensorgrams of the entire titration series to Langmuir model (1:1) using Biaevaluation 4.0 software. The dissociation constant, KD, was calculated from the determined rate constants by the relation KD=kd/ka.

[2] = target: T2, cynomolgus PD-L1 (cynomolgus, UniProt G7PSE7 19-238); assay: as above
T2 construct: also called Cyno-PD-L1; cyno-PD-L1; not shown: Any tag or Fc carrier on the soluble cynomolgus PD-L1 analyte
T2 sequence (G7PSE7 entry or part of it limits assumed): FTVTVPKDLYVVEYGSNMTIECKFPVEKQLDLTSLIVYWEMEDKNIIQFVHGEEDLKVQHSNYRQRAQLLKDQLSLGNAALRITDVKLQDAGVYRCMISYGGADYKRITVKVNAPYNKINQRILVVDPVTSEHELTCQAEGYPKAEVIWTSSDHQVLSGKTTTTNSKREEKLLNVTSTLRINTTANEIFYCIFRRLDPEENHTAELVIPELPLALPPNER
Experimental: as §1

T1 sequence (Q9NZQ7 19-238 limits assumed): as the sequence (G7PSE7 entry or part of it limits assumed) above, with T33A, S34A, N62S, Q68R, R82Q, L173F, A185T, I192T, L215H counted along it

- Kd [1]: 1.74 nM
- Kd [2]: 2.43 nM
B1: hu13C5 (antibody)
VH: EVQLVESGGGLVKPGGSLRLSCAASGFIFRSYGMSWVRQAPGKGLEWVASISSGGSTYYPDSVKGRFTISRDNAKNSLYLQMNSLRAEDTAVYDCARGYDSGFAYWGQGTLVTVSS
light: DIVLTQSPASLAVSPGQRATITCRASQSVSTSSSSFMHWYQQKPGQPPKLLIKYASNLESGVPARFSGSGSGTDFTLTINPVEANDTANYYCQHSWEIPYTFGQGTKLEIKRTVAAPSVFIFPPSDEQLKSGTASVVCLLNNFYPREAKVQWKVDNALQSGNSQESVTEQDSKDSTYSLSSTLTLSKADYEKHKVYACEVTHQGLSSPVTKSFNRGEC

- Kd [1]: 0.225 nM
- Kd [2]: 0.275 nM
B2: hu5G11 (antibody)
VH: QITLKESGPTLVKPTQTLTLTCTVSGFSLSTYGVHWIRQPPGKALEWLGVIWRGVTTDYNAAFMSRLTITKDNSKNQVVLTMNNMDPVDTATYYCARLGFYAMDYWGQGTLVTVSS
light: DIQMTQSPSSLSASVGDRVTITCKASQSVSNDVAWYQQKPGKAPKLLIYYAANRYTGVPDRFSGSGYGTDFTFTISSLQPEDIATYFCQQDYTSPYTFGQGTKLEIKRTVAAPSVFIFPPSDEQLKSGTASVVCLLNNFYPREAKVQWKVDNALQSGNSQESVTEQDSKDSTYSLSSTLTLSKADYEKHKVYACEVTHQGLSSPVTKSFNRGEC
